Experiments:
[1] = system: neutrophils; experiment: Example 22 non-human primate study, neutrophil count; assay type: in vivo, cynomolgus monkey
Method: (§1) LNP formulations, shown in Table 31 (above), were administered to non-human primates (NHP) (cynomolgus monkey) (n=2) as intravenous injection (IV). The NHP were administered a single modified mRNA IV dose of 0.5 mg/kg, 0.05 mg/kg or 0.005 mg/kg of G-CSF or EPO in a dose volume of 0.5 mL/kg. The NHPs were bled before dosing with the modified mRNA LNP formulations to determine protein expression in the serum and a baseline complete blood count. After administration with the G-CSF modified mRNA formulation the NHP were bled at 8, 24, 48 and 72 hours to determined protein expression. After administration with the EPO modified mRNA formulation the NHP were bled at 8, 24, 48, 72 hours and 7 days to determined protein expression.
(§2) Samples collected from the NHPs after they were administered with G-CSF or EPO modified mRNA formulations were analyzed by ELISA to determine protein expression. Neutrophil and reticulocyte count was also determined pre-dose, 24 hours, 3 days, 7 days, 14 days and 18 days after administration of the modified G-CSF or EPO formulation.

[2] = system: IFN-alpha; experiment: Example 45 cytokine study in PBMC, IFN-alpha ELISA; assay type: cell-based, human; conditions: human PBMC, Lipofectamine 2000
Method: The plates were then incubated at 37 C.
Each condition was done in duplicate.
Shown in Tables 69 and 70 are the average from 2 separate PBMC donors of the G-CSF and IFN-alpha production over time as measured by specific ELISA.

[3] = system: G-CSF; experiment: Example 16 lipid nanoparticle in vivo study, serum G-CSF ELISA; design: species or system mice; conditions: for G-CSF Serum Concentration 8-12 hours after administration: IV (LNP); for G-CSF Protein Expression, Conc: mice IV LNP, serum 8 hrs
Method: Mice were sacrificed at 8 hrs after dosing. […] Protein expression was determined by ELISA.
As used in Table 30, the symbol “˜” means about.

[4] = system: G-CSF; experiment: Examples 21-22 non-human primate in vivo study, serum G-CSF ELISA; design: species or system cynomolgus monkey; conditions: for Average Serum Conentration: G-CSF
Method: Formulations, listed in Table 31, were characterized by particle size, zeta potential, and encapsulation.
LNP formulations, shown in Table 31 (above), were administered to non-human primates (NHP) (cynomolgus monkey) (n=2) as a bolus intravenous injection (IV) over approximately 30 seconds using a hypodermic needle, which may be attached to a syringe/abbocath or butterfly if needed. The NHP were administered a single modified mRNA IV dose of 0.05 mg/kg of EPO or G-CSF or 0.005 mg/kg of EPO in a dose volume of 0.5 mL/kg. The NHPs were bled 5-6 days before dosing with the modified mRNA LNP formulations to determine protein expression in the serum and a baseline complete blood count. After administration with the modified mRNA formulation the NHP were bled at 8, 24, 48 and 72 hours to determined protein expression. At 24 and 72 hours after administration the complete blood count of the NHP was also determined. Protein expression of G-CSF and EPO was determined by ELISA. Urine from the NHPs was collected over the course of the entire experiment and analyzed to evaluate clinical safety. Samples were collected from the NHPs after they were administered with G-CSF or EPO modified mRNA formulations to determine protein expression using ELISA. Clinical chemistry, hematology, urinalysis and cytokines of the non-human primates were also analyzed.
as §1, §2

[5] = system: G-CSF; experiment: Example 16 lipid nanoparticle in vivo study, serum G-CSF ELISA; design: species or system mice; conditions: 100 ug

B1: G-CSF: human G-CSF mRNA SEQ ID NO: 6, polyA ~160 nt, Cap1, fully modified with 5-methylcytosine and pseudouridine (nucleic acid, listed as Homo sapiens)
chain: GGGAAAUAAGAGAGAAAAGAAGAGUAAGAAGAAAUAUAAGAGCCACCAUGGCCGGUCCCGCGACCCAAAGCCCCAUGAAACUUAUGGCCCUGCAGUUGCUGCUUUGGCACUCGGCCCUCUGGACAGUCCAAGAAGCGACUCCUCUCGGACCUGCCUCAUCGUUGCCGCAGUCAUUCCUUUUGAAGUGUCUGGAGCAGGUGCGAAAGAUUCAGGGCGAUGGAGCCGCACUCCAAGAGAAGCUCUGCGCGACAUACAAACUUUGCCAUCCCGAGGAGCUCGUACUGCUCGGGCACAGCUUGGGGAUUCCCUGGGCUCCUCUCUCGUCCUGUCCGUCGCAGGCUUUGCAGUUGGCAGGGUGCCUUUCCCAGCUCCACUCCGGUUUGUUCUUGUAUCAGGGACUGCUGCAAGCCCUUGAGGGAAUCUCGCCAGAAUUGGGCCCGACGCUGGACACGUUGCAGCUCGACGUGGCGGAUUUCGCAACAACCAUCUGGCAGCAGAUGGAGGAACUGGGGAUGGCACCCGCGCUGCAGCCCACGCAGGGGGCAAUGCCGGCCUUUGCGUCCGCGUUUCAGCGCAGGGCGGGUGGAGUCCUCGUAGCGAGCCACCUUCAAUCAUUUUUGGAAGUCUCGUACCGGGUGCUGAGACAUCUUGCGCAGCCGUGAAGCGCUGCCUUCUGCGGGGCUUGCCUUCUGGCCAUGCCCUUCUUCUCUCCCUUGCACCUGUACCUCUUGGUCUUUGAAUAAAGCCUGAGUAGGAAG
modifications: polyA ~160, Cap1, 5mC/pseudouridine modified
Neutrophils ([1]; Female NHP, 0.005 mg/kg, 14/18 days): 2.28 10^9/L
Neutrophils ([1]; Female NHP, 0.005 mg/kg, 24 hours): 8.6 10^9/L
Neutrophils ([1]; Female NHP, 0.005 mg/kg, 3 days): 1.78 10^9/L
Neutrophils ([1]; Female NHP, 0.005 mg/kg, 7 days): 2.27 10^9/L
Neutrophils ([1]; Female NHP, 0.005 mg/kg, Pre-dose): 2.54 10^9/L
Neutrophils ([1]; Female NHP, 0.05 mg/kg, 14/18 days): 1.82 10^9/L
Neutrophils ([1]; Female NHP, 0.05 mg/kg, 24 hours): 29.91 10^9/L
Neutrophils ([1]; Female NHP, 0.05 mg/kg, 3 days): 10.77 10^9/L
Neutrophils ([1]; Female NHP, 0.05 mg/kg, 7 days): 3.8 10^9/L
Neutrophils ([1]; Female NHP, 0.05 mg/kg, Pre-dose): 3.05 10^9/L
Neutrophils ([1]; Female NHP, 0.5 mg/kg, 14/18 days): 1.98 10^9/L
Neutrophils ([1]; Female NHP, 0.5 mg/kg, 24 hours): 13.96 10^9/L
Neutrophils ([1]; Female NHP, 0.5 mg/kg, 3 days): 13.7 10^9/L
Neutrophils ([1]; Female NHP, 0.5 mg/kg, 7 days): 3.81 10^9/L
Neutrophils ([1]; Female NHP, 0.5 mg/kg, Pre-dose): 1.27 10^9/L
Neutrophils ([1]; Male NHP, 0.005 mg/kg, 14/18 days): 4.31 10^9/L
Neutrophils ([1]; Male NHP, 0.005 mg/kg, 24 hours): 16.44 10^9/L
Neutrophils ([1]; Male NHP, 0.005 mg/kg, 3 days): 3.74 10^9/L
Neutrophils ([1]; Male NHP, 0.005 mg/kg, 7 days): 7.28 10^9/L
Neutrophils ([1]; Male NHP, 0.005 mg/kg, Pre-dose): 1.52 10^9/L
Neutrophils ([1]; Male NHP, 0.05 mg/kg, 14/18 days): 3.59 10^9/L
Neutrophils ([1]; Male NHP, 0.05 mg/kg, 24 hours): 19.92 10^9/L
Neutrophils ([1]; Male NHP, 0.05 mg/kg, 3 days): 7.49 10^9/L
Neutrophils ([1]; Male NHP, 0.05 mg/kg, 7 days): 4.13 10^9/L
Neutrophils ([1]; Male NHP, 0.05 mg/kg, Pre-dose): 13.74 10^9/L
Neutrophils ([1]; Male NHP, 0.5 mg/kg, 14/18 days): 2.58 10^9/L
Neutrophils ([1]; Male NHP, 0.5 mg/kg, 24 hours): 14.92 10^9/L
Neutrophils ([1]; Male NHP, 0.5 mg/kg, 3 days): 9.76 10^9/L
Neutrophils ([1]; Male NHP, 0.5 mg/kg, 7 days): 2.74 10^9/L
Neutrophils ([1]; Male NHP, 0.5 mg/kg, Pre-dose): 1.53 10^9/L
neutrophils relative to pre-dose levels ([1]; NHP, all G-CSF groups): increase in neutrophils
innate immune recognition, cytokine production (IFN-alpha and others) [2]: induced IFN-alpha, TNF-alpha and IP10
G-CSF Serum Concentration 8-12 hours after administration ([3]; 1 ug): ~20,000 pg/ml
G-CSF Serum Concentration 8-12 hours after administration ([3]; 10 ug): ~1,000,000 pg/ml
G-CSF Serum Concentration 8-12 hours after administration ([3]; 100 ug): ~5,000,000 pg/ml
G-CSF Protein Expression, Conc ([3]; 10 ug): 1204.82 ng/mL
G-CSF Protein Expression, Conc ([3]; 100 ug): 4722.20 ng/mL
Female NHP Serum G-CSF Concentration ([4]; IV 0.005 mg/kg, 8 hours): 559 pg/mL
Male NHP Serum G-CSF Concentration ([4]; IV 0.005 mg/kg, 8 hours): 700 pg/mL
Female NHP Serum G-CSF Concentration ([4]; IV 0.005 mg/kg, 24 hours): 155 pg/mL
Male NHP Serum G-CSF Concentration ([4]; IV 0.005 mg/kg, 24 hours): <39 pg/mL
Female NHP Serum G-CSF Concentration ([4]; IV 0.005 mg/kg, 48 hours): <39 pg/mL
Male NHP Serum G-CSF Concentration ([4]; IV 0.005 mg/kg, 48 hours): <39 pg/mL
Female NHP Serum G-CSF Concentration ([4]; IV 0.005 mg/kg, 72 hours): <39 pg/mL
Male NHP Serum G-CSF Concentration ([4]; IV 0.005 mg/kg, 72 hours): <39 pg/mL
Female NHP Serum G-CSF Concentration ([4]; IV 0.005 mg/kg, Pre-bleed): <39 pg/mL
Male NHP Serum G-CSF Concentration ([4]; IV 0.005 mg/kg, Pre-bleed): <39 pg/mL
Female NHP Serum G-CSF Concentration ([4]; IV 0.05 mg/kg, 24 hours): 722 pg/mL
Male NHP Serum G-CSF Concentration ([4]; IV 0.05 mg/kg, 24 hours): 307 pg/mL
Female NHP Serum G-CSF Concentration ([4]; IV 0.5 mg/kg, 8 hours): 43,525 pg/ml
Male NHP Serum G-CSF Concentration ([4]; IV 0.5 mg/kg, 8 hours): 43,594 pg/ml
Female NHP Serum G-CSF Concentration ([4]; IV 0.5 mg/kg, 24 hours): 11,374 pg/ml
Male NHP Serum G-CSF Concentration ([4]; IV 0.5 mg/kg, 24 hours): 3,628 pg/ml
Female NHP Serum G-CSF Concentration ([4]; IV 0.5 mg/kg, 48 hours): 1,100 pg/ml
Male NHP Serum G-CSF Concentration ([4]; IV 0.5 mg/kg, 48 hours): 833 pg/mL
Female NHP Serum G-CSF Concentration ([4]; IV 0.5 mg/kg, 72 hours): <39 pg/mL
Male NHP Serum G-CSF Concentration ([4]; IV 0.5 mg/kg, 72 hours): 306 pg/mL
Female NHP Serum G-CSF Concentration ([4]; IV 0.5 mg/kg, Pre-bleed): <39 pg/mL
Male NHP Serum G-CSF Concentration ([4]; IV 0.5 mg/kg, Pre-bleed): <39 pg/mL
Average Serum Conentration ([4]; NHP, IV 0.05 mg/kg, 8 hours): 2,506 pg/ml
Average Serum Conentration ([4]; NHP, IV 0.05 mg/kg, 24 hours): 515 pg/mL
Average Serum Conentration ([4]; NHP, IV 0.05 mg/kg, 48 hours): 0 pg/mL
Average Serum Conentration ([4]; NHP, IV 0.05 mg/kg, 72 hours): 0 pg/mL
Average Serum Conentration ([4]; NHP, IV 0.05 mg/kg, Pre-bleed): 0 pg/mL
G-CSF protein expression seen out to ([4]; NHP, IV 0.05 mg/kg): 24 h
G-CSF protein expression not detected beyond ([4]; NHP, IV 0.5, 0.05, 0.005 mg/kg (Table 36)): ≤ 72 h
G-CSF Serum Concentration 8-12 hours after administration ([5]; IM, saline): ~20 to 80 pg/mL
G-CSF Serum Concentration 8-12 hours after administration ([5]; IV (Lipoplex)): ~30 pg/mL
G-CSF Serum Concentration 8-12 hours after administration ([5]; SC, saline): ~10 to 40 pg/mL
